Experimental findings from patent US20230069996A1 are described below.

Assay [1] concerns the target IL-22 receptors on COLO205 cells (UniProt Q8N6P7).
For assay [2] the target is unchanged. This is another data set of the same source.

IL-22 receptors on COLO205 cells, sequence (Q8N6P7 16-574 limits assumed, chain 1 of 2): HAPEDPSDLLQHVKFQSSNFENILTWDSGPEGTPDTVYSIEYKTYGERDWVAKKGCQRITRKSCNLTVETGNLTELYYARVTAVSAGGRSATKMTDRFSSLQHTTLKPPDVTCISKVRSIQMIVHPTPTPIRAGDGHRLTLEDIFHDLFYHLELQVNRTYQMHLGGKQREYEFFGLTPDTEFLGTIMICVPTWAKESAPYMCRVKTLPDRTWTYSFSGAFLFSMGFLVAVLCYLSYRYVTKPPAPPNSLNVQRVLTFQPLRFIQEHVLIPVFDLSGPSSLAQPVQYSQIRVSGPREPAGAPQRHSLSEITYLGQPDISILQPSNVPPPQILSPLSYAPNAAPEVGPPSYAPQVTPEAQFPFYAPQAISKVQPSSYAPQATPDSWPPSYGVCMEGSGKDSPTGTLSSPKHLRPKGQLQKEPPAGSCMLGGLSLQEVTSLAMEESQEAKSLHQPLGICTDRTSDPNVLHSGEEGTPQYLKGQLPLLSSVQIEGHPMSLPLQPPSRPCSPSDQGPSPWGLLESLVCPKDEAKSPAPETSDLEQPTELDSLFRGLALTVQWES
IL-22 receptors on COLO205 cells, sequence (Q08334 20-325 limits assumed, chain 2 of 2, further chain): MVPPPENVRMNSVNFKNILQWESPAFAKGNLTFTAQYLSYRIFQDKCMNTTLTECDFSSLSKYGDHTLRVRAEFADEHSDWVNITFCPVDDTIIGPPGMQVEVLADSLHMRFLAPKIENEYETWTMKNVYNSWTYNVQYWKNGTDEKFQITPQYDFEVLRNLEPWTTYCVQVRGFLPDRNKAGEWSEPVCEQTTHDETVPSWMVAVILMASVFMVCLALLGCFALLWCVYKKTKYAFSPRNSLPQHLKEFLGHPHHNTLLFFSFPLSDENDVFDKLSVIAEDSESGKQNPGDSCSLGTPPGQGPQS

The substance “human IL-22 (from UniProt Q9GZX6) (ligand)” yielded an EC50 (read off the curve) of IL-10 secretion by COLO205 cells, human IL-22 incubated with uPA in assay [1] of 0.05 nM. In assay [2], this substance registered an EC50 (read off the curve) of IL-10 secretion by COLO205 cells, human IL-22 without uPA of 0.08 nM.
